In data set [1] the test system is CCHFV nucleoprotein (NP) (Crimean-Congo hemorrhagic fever orthonairovirus). As to the kind of experiment: competition fluorescence anisotropy. On the technique in general: In fluorescence polarisation assays a small probe gives low polarisation when free and higher when bound to something large.
Data set [2] has the same test system. As to the kind of experiment: fluorescence anisotropy.

Take 27-mer RNA: in data set [1], the half-inhibitory concentration (IC50) was 197 nM. The substance also returned an equilibrium dissociation constant (Kd) in data set [2] of 190 nM.

Consider 48-mer RNA, for which the half-inhibitory concentration (IC50) in data set [1] came out at 167 nM. For the same substance, in data set [2], the Kd came out at 230 nM.

One may read the IC50 as the concentration that inhibits the measured activity by half. Lower therefore signals greater potency in that assay. Broadly, the Kd is the constant that tells how readily two partners part at equilibrium. A lower Kd goes with a tighter complex.
